Results as given in patent publication US9309315B2, “Therapy with CD4 binding peptides and radiation” (GENMAB A/S, priority 2005, dated 2016).

Legend:
Format in all cases: cell-based, human
Dok-1 = test: SH2-precipitation (SH2C-RasGAP-GST) and Dok-1 blot of lysates from CD4+ T cells incubated with zanolimumab; conditions: SH2-precipitate; for amount of precipitated Dok-1 after inhibitor pre-treatment: cells pre-incubated with inhibitor before zanolimumab exposure, FIG. 3D
Procedure: (§1) FIG. 3 illustrates results from CD4^+ T cells incubated with zanolimumab or a human immunoglobulin negative control. Cell lysates were CD4-precipitated (A), SH2-precipitated (B, D) or used as whole lysate (C). FIG. 3A: Two CD4-precipitates were submitted to a kinase assay (upper two panels). Blots were probed with antibodies to p56^Ick (top panel), the p56^Ick substrate α-casein (second panel), Y-394 phosphorylated p56^Ick (third panel), p56^Ick (fourth panel) or CD4 (bottom panel). The numbers below the blots represent densitometric values normalized for p56^Ick loading. FIG. 3B: Blots with SH2-precipitate were incubated with antibodies to Dok-1 (top panel) or GST (bottom panel). The numbers below the blots represent densitometric values normalized for GST loading. FIG. 3C: Proteins in whole cell lysate were separated by SDS-PAGE and blotted. Membranes were incubated with antibodies to phosphorylated SHIP-1 (top panel) or SHIP-1 regardless of phosphorylation status (bottom panel). The numbers below the blots represent densitometric values normalized for SHIP-1 loading. FIG. 3D: Before zanolimumab exposure, cells were pre-incubated with Src kinase inhibitors PP2 or damnacanthal (DAM). Blots were incubated with antibodies for Dok-1 (top panel) or GST (bottom panel). The numbers below the blots represent densitometric values normalized for GST loading. Results for the experiments shown here are representative of 4 independent experiments.
The activation of inhibitory adaptor molecules in T cells presented in FIG. 3 were obtained with CD4^+ T cells isolated as described in example 1. CD4^+ T cells (3×10E7 cells) were incubated with zanolimumab and, when appropriate, pre-incubated with Src kinase inhibitors PP2 or damnacanthal (Merck Biosciences, Nottingham, UK) before exposure to zanolimumab. Cell lysates were incubated with CD4-precipitating antibody and antibody-bound proteins were precipitated with protein-G sepharose. […] Proteins were detected with an HRP-conjugated secondary antibody, visualized by ECL and quantified using a phosphor-imager.

SHIP-1 = test: Whole cell lysate blot for phosphorylated SHIP-1 in CD4+ T cells incubated with zanolimumab; conditions: FIG. 3C
Procedure: as §1, with “FIG. 3D: Before zanolimumab exposure, cells were pre-incubated with Src kinase inhibitors PP2 or damnacanthal (DAM). Blots were incubated with antibodies for Dok-1 (top panel) or GST (bottom panel). The numbers below the blots represent densitometric values normalized for GST loading. Results for the experiments shown here are representative of 4 independent experiments.” left out
The activation of inhibitory adaptor molecules in T cells presented in FIG. 3 were obtained with CD4^+ T cells isolated as described in example 1. […] Proteins were detected with an HRP-conjugated secondary antibody, visualized by ECL and quantified using a phosphor-imager.

CD4^+ T cells = test: Western blotting of T-cell signaling molecules in CD4+ T cells incubated with zanolimumab and stimulated with immobilized CD3 monoclonal antibody (OKT3)
Procedure: FIG. 2 illustrates results of Western blotting of cell lysates prepared from CD4^+ T cells stimulated with CD3 monoclonal antibody and zanolimumab. CD4^+ T cells were incubated with HuMax-CD4 and then stimulated with CD3 monoclonal antibody (OKT3) immobilized onto latex beads. Proteins in duplicate cell lysate samples were separated by 7-15% gradient gel SDS-PAGE and were transferred onto blotting membranes by electrophoresis. One membrane was incubated with a phosphotyrosine specific antibody, stripped and then re-probed with TCRζ and LAT specific antibodies (FIG. 2A). The other was incubated with antibodies to the phosphorylated form of specific proteins, stripped and then re-probed with ZAP-70 (2B), Erk1/2, p38 and AKT antibodies (2C). The numbers below the blots represent densitometric values normalized for loading relative to values observed after 2 min of CD3-stimulation in the absence of HuMax-CD4. Results for the experiments shown here are representative of 4 independent experiments.
The effect on T-cell signaling molecules upon T-cell activation presented in FIG. 2 were obtained with CD4^+ T cells isolated from peripheral blood from healthy donors. CD4^+ T cells were isolated using enrichment RosetteSep cocktail (Stemcell Technologies Inc, Canada) and separated by lymphoprep (Axis Shield, Poc AS, Norway) density centrifugation. CD4^+ T cells (10^7 cells) were incubated with zanolimumab and then stimulated with CD3 monoclonal antibody (OKT3, available from Orthoclone, Pharmacy, UMC, Utrecht) immobilized onto latex beads. Cell were lysed using lysis buffer (1% Nonidet P-40, 20 mM Tris-HCl, pH 7.4, 150 mM NaCl, 2 mM EGTA, 1 mM Na3VO4, 10 mM NaF, 10 mM sodium pyrophosphate and protease inhibitors (Roche Molecular Biochemicals, Sussex, UK)). Proteins in duplicate cell lysate samples were separated by 7-15% gradient gel SDS-PAGE and transferred onto blotting membranes by electrophoresis. Membranes were incubated with antibodies for specific tyrosine-phosphorylated proteins, stripped and then re-probed with antibodies recognizing the specific proteins regardless of their phosphorylation status. Proteins were detected with an HRP-conjugated secondary antibody, visualized by ECL and quantified using a phosphor-imager.

Row | Molecule | amount of precipitated Dok-1 after inhibitor pre-treatment (Dok-1) | phosphorylation of SHIP-1 (SHIP-1) | tyrosine-phosphorylation of intracellular proteins following TCR stimulation (CD4^+ T cells; TCR stimulation via immobilized CD3 monoclonal antibody, FIG. 2A) | phosphorylation of LAT (36-38 kDa) (CD4^+ T cells; after CD3 stimulation, FIG. 2A) | phosphorylation of p21 and p23 phosphorylated isomers of the TCR-ζ chain (CD4^+ T cells; after CD3 stimulation, FIG. 2A) | phosphorylation of ZAP-70 (CD4^+ T cells; after CD3 stimulation, FIG. 2B) | AKT/PKB downstream signaling pathway (CD4^+ T cells; after CD3 stimulation, FIG. 2C) | Erk1/2 downstream signaling pathway (CD4^+ T cells; after CD3 stimulation, FIG. 2C) | p38 serine/threonine downstream signaling pathway (CD4^+ T cells; after CD3 stimulation, FIG. 2C) | inhibition of the very earliest T-cell activation events (CD4^+ T cells; summary of Example 1, densitometry relative to CD3 stimulation without antibody) | phosphorylation of Dok-1 (Dok-1; FIG. 3B)
1 | CC(C)(C)n1nc(-c2ccc(Cl)cc2)c2c(N)ncnc21 [PP2] | reduced amount of precipitated Dok-1 | – | – | – | – | – | – | – | – | – | –
2 | COc1c(C=O)c(O)cc2c1C(=O)c1ccccc1C2=O [damnacanthal] | reduced amount of precipitated Dok-1 | – | – | – | – | – | – | – | – | – | –
3 | zanolimumab (antibody, listed as Homo sapiens, V domains shown, anti CD4 Vh; anti CD4 VL, anti-CD4 monoclonal human antibody (GenMab, Denmark), same as 6G5 of WO97/13852) VH: QVQLQQWGAGLLKPSETLSLTCAVYGGSFSGYYWSWIRQPPGKGLEWIGEINHSGSTNYNPSLKSRVTISVDTSKNQFSLKLSSVTAADTAVYYCARVINWFDPWGQGTLVT VL: DIQMTQSPSSVSASVGDRVTITCRASQDISSWLAWYQHKPGKAPKLLIYAASSLQSGVPSRFSGSGSGTDFTLTISSLQPEDFATYYCQQANSFPYTFGQGTKLEIK | – | induces phosphorylation | generalized inhibition | inhibited | markedly inhibited | inhibition | inhibits | inhibits | inhibits | about 50% | induces phosphorylation
